In publication PMC10448276, “Mechanisms controlling membrane recruitment and activation of the autoinhibited SHIP1 inositol 5-phosphatase” (The Journal of Biological Chemistry, 2023):
Non-standard residues stand in square brackets, D forms with d. No end group written: not given here. pY = N[C@@H](Cc1ccc(OP(=O)(O)O)cc1)C(=O)O

B1: mNG-SHIP1 (FL, 1–1188 aa), full-length human Src homology 2 domain–containing inositol 5-phosphatase 1 (enzyme, UniProt Q92835-2 1-1188, looked up)
chain: MVPCWNHGNITRSKAEELLSRTGKDGSFLVRASESISRAYALCVLYRNCVYTYRILPNEDDKFTVQASEGVSMRFFTKLDQLIEFYKKENMGLVTHLQYPVPLEEEDTGDDPEEDTESVVSPPELPPRNIPLTASSCEAKEVPFSNENPRATETSRPSLSETLFQRLQSMDTSGLPEEHLKAIQDYLSTQLAQDSEFVKTGSSSLPHLKKLTTLLCKELYGEVIRTLPSLESLQRLFDQQLSPGLRPRPQVPGEANPINMVSKLSQLTSLLSSIEDKVKALLHEGPESPHRPSLIPPVTFEVKAESLGIPQKMQLKVDVESGKLIIKKSKDGSEDKFYSHKKILQLIKSQKFLNKLVILVETEKEKILRKEYVFADSKKREGFCQLLQQMKNKHSEQPEPDMITIFIGTWNMGNAPPPKKITSWFLSKGQGKTRDDSADYIPHDIYVIGTQEDPLSEKEWLEILKHSLQEITSVTFKTVAIHTLWNIRIVVLAKPEHENRISHICTDNVKTGIANTLGNKGAVGVSFMFNGTSLGFVNSHLTSGSEKKLRRNQNYMNILRFLALGDKKLSPFNITHRFTHLFWFGDLNYRVDLPTWEAETIIQKIKQQQYADLLSHDQLLTERREQKVFLHFEEEEITFAPTYRFERLTRDKYAYTKQKATGMKYNLPSWCDRVLWKSYPLVHVVCQSYGSTSDIMTSDHSPVFATFEAGVTSQFVSKNGPGTVDSQGQIEFLRCYATLKTKSQTKFYLEFHSSCLESFVKSQEGENEEGSEGELVVKFGETLPKLKPIISDPEYLLDQHILISIKSSDSDESYGEGCIALRLEATETQLPIYTPLTHHGELTGHFQGEIKLQTSQGKTREKLYDFVKTERDESSGPKTLKSLTSHDPMKQWEVTSRAPPCSGSSITEIINPNYMGVGPFGPPMPLHVKQTLSPDQQPTAWSYDQPPKDSPLGPCRGESPPTPPGQPPISPKKFLPSTANRGLPPRTQESRPSDLGKNAGDTLPQEDLPLTKPEMFENPLYGSLSSFPKPAPRKDQESPKMPRKEPPPCPEPGILSPSIVLTKAQEADRGEGPGKQVPAPRLRSFTCSSSAEGRAAGGDKSQGKPKTPVSSQAPVPAKRPIKPSRSEINQQTPPTPTPRPPLPVKSPAVLHLQHSKGRDYRDNTELPHHGKHRPEEGPPGPLGRTAMQ
B2: pY-ITIM, phosphotyrosine peptide from the immunoreceptor tyrosine inhibitory motif (ITIM) of the FcγRIIB receptor (peptide)
peptide: CKTEAENTIT[pY]SLIK
modifications: also: N-terminal Cys coupled to maleimide headgroup of MCC-PE lipid in membrane-conjugated experiments
notes: cysteine added to the N terminus for coupling to the maleimide lipid; the tyrosine is phosphorylated; Used in solution (100 μM) or conjugated to supported lipid bilayers with 2% MCC-PE; also called pY peptide; ITIM peptide; source: synthetic peptide (Elim Biopharmaceuticals)

Legend:
[1] = molecular target: B2; assay: cell-based or functional assay
[2] = molecular target: B1; assay: TIRF microscopy on supported lipid bilayers (bulk membrane recruitment); 5 nM mNG-SHIP1 construct in solution; pY-ITIM peptide covalently conjugated to maleimide lipid in the SLB (96% DOPC, 2% PI(3,4,5)P3, 2% MCC-PE); 23 °C; details: both partners purified

lipid phosphatase activity of 20 nM FL SHIP1 on SLB (PI(3,4,5)P3 dephosphorylation, Grp1-AF647 sensor, reaction half time) with 100 μM pY-ITIM in solution [1] [fold] | binding result [2] | Binder
~5 |  | B1
 | binds | B2
